Results as given in patent US20250179161A1 (OTHAIR PROTHENA, published 2025).
Residue numbers refer to the chain shown, from its start. Where “and” joins values, the source holds several entries; their conditions need not be identical. Equal values may be shown once.

B1: h2731 (antibody, V domains shown)
VH: EVQLLESGGGLVQPGGSLRLSCAASGFTFSNYGMSWVRQAPGKGLEWVASIRSGSGRTYYSDNVKGRFTISRDNSKNTLYLQMNSLRAEDTAVYYCVRYDHYSGSSDYWGQGTLVTVSS
VL: DVVMTQSPLSLPVTLGEPASISCKSSQSLLDYDGKTYLNWLLQKPGQSPQRLIYRVTNRDTGVPDRFSGSGSGTDFTLKISRVEAEDVGVYYCWQGTHFPRSFGQGTKVEIK
notes: Humanized IgG
B2: h2726 (antibody, V domains shown)
VH: B1 VH
VL: B1 VL with L15P, R55K, T57S, T61S, S102T
notes: Humanized IgG, detected with anti-human IgG
B3: h2931 (antibody, V domains shown)
VH: B1 VH with Y32F, I51V, S103T, S105T
VL: B1 VL
notes: Humanized IgG
B4: h2831 (antibody, V domains shown)
VH: B1 VH with Y32F, I51V, S105T
VL: B1 VL
notes: Humanized IgG
B5: h2726 Fab (Fab, V domains shown)
VH: B1 VH
VL: B1 VL with L15P, R55K, T57S, T61S, S102T
B6: h2731 Fab (Fab, V domains shown)
VH: B1 VH
VL: B1 VL
B7: h2931 Fab (Fab, V domains shown)
VH: B1 VH with Y32F, I51V, S103T, S105T
VL: B1 VL
B8: h2831 Fab (Fab, V domains shown)
VH: B1 VH with Y32F, I51V, S105T
VL: B1 VL
B9: 4918 (antibody, V domains shown)
VH: B1 VH with Y32F, I51V, S55G, S105T
VL: B1 VL with L30M, Y32T, R55K, T57S, D60E, T61S, S102T
notes: It is not in the first reading's list; also called h4918G; h4918
B10: bapineuzumab Fab (Fab, V domains shown)
VH: B1 VH with S55G
VL: B1 VL with L15P, Y32S, R55L, T57S, N58K, R59L, T61S, S102T
notes: also called hBP
B11: h2826 (antibody, V domains shown)
VH: B1 VH with Y32F, I51V, S105T
VL: B1 VL with L15P, R55K, T57S, T61S, S102T
B12: h4917G (antibody, V domains shown)
VH: B1 VH with Y32F, I51V, S55G, S105T
VL: B1 VL with Y32S, R55K, D60E, T61S
notes: also called h49_VK17
B13: h2929 (antibody, V domains shown)
VH: B1 VH with Y32F, I51V, S103T, S105T
VL: B1 VL with L15P, K24R, L30V, K44R, R55K, T57S, T61S, T97S, F103Y
B14: h49k3G (antibody, V domains shown)
VH: B1 VH with Y32F, I51V, S55G, S105T
VL: B1 VL with Y32S, R55K, T57S, T61S, S102T
notes: also called h49_hum3; 49human3
B15: h3818G (antibody, V domains shown)
VH: B1 VH with S30A, I51V, S55G, G56S
VL: B1 VL with L30M, Y32T, R55K, T57S, D60E, T61S, S102T
B16: h2926 (antibody, V domains shown)
VH: B1 VH with Y32F, I51V, S103T, S105T
VL: B1 VL with L15P, R55K, T57S, T61S, S102T
B17: h4921G (antibody, V domains shown)
VH: B1 VH with Y32F, I51V, S55G, S105T
VL: B1 VL with Y32S, S102T
B18: h2727 (antibody, V domains shown)
VH: B1 VH
VL: B1 VL with L15P, R55K, T57S, T61S
B19: h2927 (antibody, V domains shown)
VH: B1 VH with Y32F, I51V, S103T, S105T
VL: B1 VL with L15P, R55K, T57S, T61S

target: Amyloid Beta (Aβ) 1-42 (human); test: cell-based or functional assay

For B1, the “blockade of binding of soluble Aβ to rat hippocampal synapses at 1:50 molar mAb:Aβ42 ratio” value was > 90%.

target: T1, Amyloid Beta (Aβ) 1-42 (human); test: direct ELISA on fibrillar Aβ1-42
T1 construct: The same peptide was used in several aggregation states: fibrils, a heterogeneous aggregate mixture, and soluble oligomers or aggregates; also called Aβ42; Aβ 42
T1 sequence (peptide, as listed by the source): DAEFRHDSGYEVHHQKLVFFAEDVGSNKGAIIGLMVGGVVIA

In the case of B1, the EC50 is reported as 0.0081 µg/mL and 0.054 nM.

target: T1, Amyloid Beta (Aβ) 1-42; test: cell-based or functional assay

In order of rising “IC50 of Abeta spots per neuron (% Abeta control); the table gives no unit, the x axis is 'mAb (µg/mL)'” value:
1. B1  0.47 µg/mL
2. B3  0.627 µg/mL
3. B4  0.924 µg/mL
4. B2  1.67 µg/mL

In order of falling “Total Area (under the curve of Abeta spots per neuron, % Abeta control)” value:
1. B2  9070
2. B3  8480
3. B1  7520
4. B4  6500

target: T1, Amyloid Beta (Aβ) 1-42; test: direct ELISA on plate-coated Aβ42 fibrils (FIG. 21)

In order of rising “fold increase in assay signal (OD490) relative to aducanumab” value:
1. B1  3 fold
2. B2  3 fold
3. B3  3 fold
4. B4  3 fold

target: T1, Amyloid Beta (Aβ) 1-42; test: SPR on Aβ1-42 fibrils; this end is tied to h2726 by the KD values of Table 6

B2 was tested, and the “fold greater avidity (apparent KD) than aducanumab” value was 5 to 11 fold.

target: T1, Amyloid Beta (Aβ) 1-42; test: SPR on Aβ1-42 fibrils; this end is tied to h2831 by the KD values of Table 6

For B4, the “fold greater avidity (apparent KD) than aducanumab” value was 5 to 11 fold.

target: T1, Amyloid Beta (Aβ) 1-42; test: SPR (BIAcore T200), Aβ1-42 fibrils immobilized on CM5, Fab as analyte, global 1:1 fit

In order of rising koff:
1. B7  0.000199 s⁻¹
2. B8  0.000248 s⁻¹
3. B5  0.000259 s⁻¹
4. B6  0.000289 s⁻¹

In order of falling kon:
1. B5  129000 M⁻¹ s⁻¹
2. B6  129000 M⁻¹ s⁻¹
3. B7  123000 M⁻¹ s⁻¹
4. B8  108000 M⁻¹ s⁻¹

target: T1, Amyloid Beta (Aβ) 1-42; test: SPR (BIAcore T200), Aβ1-42 fibrils immobilized on CM5, antibody as analyte, global 1:1 fit

In order of rising koff:
1. B3  2.05e-05 s⁻¹
2. B2  2.12e-05 s⁻¹
3. B1  2.62e-05 s⁻¹
4. B4  2.94e-05 s⁻¹

In order of rising kon:
1. B4  265000 M⁻¹ s⁻¹
2. B3  335000 M⁻¹ s⁻¹
3. B1  372000 M⁻¹ s⁻¹
4. B2  393000 M⁻¹ s⁻¹

target: T1, Amyloid Beta (Aβ) 1-42; test: competition ELISA on plate-coated Aβ42 fibrils; competitor: biotinylated hBP (bapineuzumab)

B9: binds.

target: T1, Amyloid Beta (Aβ) 1-42; test: SPR (BIAcore T200), Aβ1-42 fibrils immobilized on CM5, Fab as analyte, global 1:1 fit; apparent KD

In order of falling Kd:
1. B10  5.34 nM
2. B8  2.31 nM
3. B6  2.24 nM
4. B5  2.01 nM
5. B7  1.62 nM

target: T1, Amyloid Beta (Aβ) 1-42; test: SPR (BIAcore T200), Aβ1-42 fibrils immobilized on CM5, antibody as analyte, global 1:1 fit; apparent KD

In order of rising Kd:
1. B2  0.054 nM
2. B3  0.0612 nM
3. B1  0.0704 nM
4. B4  0.111 nM

target: T1, Amyloid Beta (Aβ) 1-42; test: direct ELISA on plate-coated Aβ42 fibrils (FIG. 21); this end is tied to h2726 by the EC50 values of Table 7

In the case of B2, the “fold lower estimated EC50 relative to aducanumab” value is reported as 15 to 20 fold.

target: T1, Amyloid Beta (Aβ) 1-42; test: direct ELISA on plate-coated Aβ42 fibrils (FIG. 21); this end is tied to h2831 by the EC50 values of Table 7

For B4, the “fold lower estimated EC50 relative to aducanumab” value was 15 to 20 fold.

target: T1, Amyloid Beta (Aβ) 1-42; test: competition ELISA, plate coated with fibril Aβ42, competitor hBP-biotin; IC50 of test divided by IC50 of hBP

In order of falling “IC50 ratio (test:hBP)” value:
1. B18  3.06
2. B12  2.69
3. B14  2.16
4. B19  1.6
5. B15  1.18
6. B13  1.16
7. B11  1.1
8. B17  1.01
9. B16  0.99
10. B4  0.77
11. B2  0.68
12. B1  0.61
13. B3  0.59

target: T1, Amyloid Beta (Aβ) 1-42; test: direct ELISA, fibril aBeta plate coat titrated, antibody held constant at 2 ug/ml; no unit in the table, x axis 'log ng/ml Abeta' [right panel]

In order of falling “IC50 (half-maximal fibril Abeta coating concentration at constant antibody)” value:
1. B1  0.44 µg/mL
2. B4  0.412 µg/mL
3. B2  0.387 µg/mL
4. B3  0.335 µg/mL

target: T1, Amyloid Beta (Aβ) 1-42; test: direct ELISA, antibody titrated on 2.5 ug/ml plate-coated fibril Abeta; the row head of the drawn table reads 'IC50', the note below it says EC50; no unit in the table, x axis 'log ng/ml antibody' [left panel]

In order of rising EC50:
1. B1  0.0387 µg/mL
2. B2  0.0403 µg/mL
3. B3  0.0435 µg/mL
4. B4  0.0462 µg/mL
